Data published in the nanobody polyreactivity screen of Harvey et al. (2022).

Test: yeast display, Sf9 membrane polyspecificity reagent, FACS + sequencing; frameworks hold sequencing errors
In short: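 Synthetic nanobody libraries on Saccharomyces cerevisiae BJ5465 were galactose-induced for 36–48 hours, stained 1 hour at 4 °C with 10% biotinylated, detergent-solubilized Sf9 membrane reagent and enriched on streptavidin microbeads. FACS then separated cells into low and high (top ~1%) gates by anti-HA (expression) and streptavidin (reagent binding) fluorescence. Genes were colony-PCR amplified, MiSeq 2 × 250 sequenced and CDR-length filtered. A clone's polyreactivity label is that of its gate of origin.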

| Sequence | polyreactivity (PSR sort gate) |
| --- | --- |
| QVQLVESGGGLVQAGGSLRVSCAASGSTFSYNAMGWYRQAPGKERELVASINSRGGTTYYADTVKVRFTISRDNAKNTVYLQMKSLKPEDTAVYYCATDVYRLGEYDYWGQGTQVTVSS | low polyreactivity |
| QVQLVESGGGLVQAGGSLRVSCAASGSTFTAYAMGWYRQAPGKERELVAAINWSGGTTYYADSVKGRFTISRDNAKNTVYLQMNSLKPEDTAVYYCAVDGNFFGEVRPYDYWGQGTQVTVSS | low polyreactivity |
| QVQLVESGGGLVQAGGSLRVSCAASGSTFTGYAMGWYRQAPGKERELVAAISRGGSTNYADSVKGRFTISRDNAKNTVYLQMNSLKPEDTAVYYCAAETYYFGYGYWGQGTQVTVSS | high polyreactivity |
| QVQLVESGGGLVQAGGSLRVSCAASGSTFTNYAMGVYRQAPRKERELIARITYNVGRTYYADSVKGRFTISRDNAKNTVYLQMNSLKPEDTAVYYCAAGVGWRYRVRWYYYLGDYWGQVTQVTVSS | high polyreactivity |
| QVQLVESGGGLVQAGGSLRVSCAASGSTFYYNAMGWYRQATGKERELVAAITRSAGSTYYADSVKGRFTISRDNAKNTVYLQMNSLKPEDTAVYYCNARYSFYGSYWTSGKYDYWGQGTQVTVSS | high polyreactivity |
| QVQLVESGGGLVQAGGSLRVSCAASGSTLGRNTMGWYRQAPGKVRELVAAITITDSTNYADSVKGRFTISRDNAKNTVYLQMNSLKPEDTAVYYGAKRRYYSTPRWGSSTYDYWGLGTQVTVSS | low polyreactivity |
| QVQLVESGGGLVQAGGSLRVSCAASGSTLVFNAMGWYRQAPGKEREIVAAISKSGGSRYYADSVKGRFTISRDNAKNTVYLQMNSLKPEDTAVYYCAPDSGGPGYAMDYWGQGTQVTVSS | high polyreactivity |
| QVQLVESGGGLVQAGGSLRVSCAASGYIFTPYAMGWYRQAPGKERELVAAISSSTVRTFYADSVKGRFTISRDNAKNTVYLQMNSLKPEDTAVYYCAARGYWGQGTQVTVSS | high polyreactivity |
| QVQLVESGGGLVQAGGSLRVTCAASGRIFQRYVMGWYRQAPGKERELVAAITWSGGSTYADSVKGRFTISRDNAKNTVYLQMNSLKTEDTAVYYFAARVPYNYWGMYYLYDYWGQGTQVTVSS | high polyreactivity |
| QVQLVESGGGLVQAGGSLRYICAASGFTFRPKVMGWYRQAHGKERELVAAISGSGGSTYYADSVKGRFTISRDNAKNTVYLQMNSLKPEDTAVYYSKDFPAFYDFGYWGQGTQVTVSS | high polyreactivity |
| QVQLVESGGGLVQAGGSLSISCAASGRTFPEYGMGWYRQAPGKDREFVAAISTRGGSTYYANSVKGRFTISGDNAKNTVYLQMNSLKPEDTAVYYCAKVYDRSGGDYWGQGTQVTVSS | low polyreactivity |
| QVQLVESGGGLVQAGGSLSLICAASGFTFLIYAMGWYRQAPGKERELVAAITWRGSGTYYADSVKGRFTISRDNAKNTVYLQMNSLKPEDTAVYYCAARTARRTYDYWGQGTQVTLSS | low polyreactivity |
| QVQLVESGGGLVQAGGSLSLICAASGRIFLRNDMGWYRQAPGKERELVAGISSDGSTYYADSVKGRFTISRDNAKNTVYLQMNSLKPEDTAVYYCAAERWGNPTDYQFWRPYDYWGQGTQVNVSS | low polyreactivity |
| QVQLVESGGGLVQAGGSLSLICAASGSTFTENAMGWYRQAPGKERELVAVITSSDGTTYYADSVKGRFTISRDNAKNTVYLQMISLKPEDTAVSYCAADPYYFWWRYDFWGQGTQVTVSS | low polyreactivity |
| QVQLVESGGGLVQAGGSLSLRCAASGRTLDVYAMGWYRQAPGKERELVARITSGGSTNYADSVKGRFTISRDNAKNTVYLQMNSLKPEDTSVYYCNAVVYTRPYTRPRYRYDYWGQGTQVTVSS | high polyreactivity |
| QVQLVESGGGLVQAGGSLSLRCAGSGRTFRTYTMGWYRQARGKERELVAAISWSGSSTYYADSVKGRVTISRDHAKNTVYLQLNSLKPEDTAVYYCAARYVSRRFLGYYYWGQGTQVTVSS | high polyreactivity |
| QVQLVESGGGLVQAGGSLSLSCAASAHTFVTNAMGWYRQAPGKERELVAAISRSGGHTYYADSVKGRFTISRDNAKNTVYLQMNSLKPEDTAVYYCAKTRGPRTLYDYWGQGTQVTVSS | high polyreactivity |
| QVQLVESGGGLVQAGGSLSLSCAASASTFRYYTMGWYRQAPGKERELVAAISWTGGGTYYADSVKGRFTISRDNAKNTVYLQMNSLKPEDTAVYYCAASYYYELFRFDYWGQGTQVTVSS | high polyreactivity |
| QVQLVESGGGLVQAGGSLSLSCAASGFIFDYYTMGWYRQAPGKEREFVAAINRRGDITYYADSVKGRFTISRDNAKNTVYLQMNSLKPEDTAVYSCAATLTWSSRYEYGYWGQGTQVTVSS | low polyreactivity |
| QVQLVESGGGLVQAGGSLSLSCAASGFTITSYAMGWYRQAPGKERELVAAINSGGSTNYADSVKGRFTISRDNAKNTVYLQMNSLIPEDNAVYYCAAKRRSYRITYVGVGYKYGYWGLGTQVTVSS | high polyreactivity |
| QVQLVESGGGLVQAGGSLSLSCAASGGIFAYNAMGWYRQAHGKEREWVATISSGVSTNYADSVKGRFTISRDNAKNTVYLQMNSLKPEDTAVYYCAAAIFITGYGSYGYWGQGTQVTVAS | low polyreactivity |
| QVQLVESGGGLVQAGGSLSLSCAASGIIIYEYAMGWYRQAPGKEMELVAAISNGGSTYYADSVKGRFTISRDNAKNTVYLQMNSLKPEDTAVYYCAARGYFDALFDYWGQGTQVTVSS | low polyreactivity |

| Sequence | polyreactivity (PSR sort gate) |
| --- | --- |
| QVQLVESGGGLVQAGGSLSLSCAASGITFDYYAMGWYRQAPGKERELVAAISGRGTSTYYADSVKGRFTLSRDNAKNTVYLQLNSLKPEDTAVYYCAADPAAQREQSFLCRRGPGYDYWGQGTQVTVSS | low polyreactivity |
| QVQLVESGGGLVQAGGSLSLSCAASGITFYGYAMGWYRQAHGKERELVATIRRSTGSTYYADSVKGRFTISRDNAMNTVYLQMNSLKPEDTAVYYCATRVWFPITSYDYWGQGTKVTVSS | low polyreactivity |
| QVQLVESGGGLVQAGGSLSLSCAASGLTIYLYAKGWYRQPPGNERELVAAISRSGGSTYYADSVKGRFTISRDNAKNTVYLQMNSLKPEDTAVYYCAAVSYYPEIRKYYYWGQGTQVTVSS | high polyreactivity |
| QVQLVESGGGLVQAGGSLSLSCAASGNIFTIYAMGWYRKAPGKERELVARITWGGGNTYYADSVKGRFTISRDNAKNTVYLQMNSLKPEDSAVYYCNAVGPYDYRYGKYDYWGLGTQVTVSS | low polyreactivity |
| QVQLVESGGGLVQAGGSLSLSCAASGNIFWGNAMGWYRQAPGKERELVAAITSIDSSTYYADSVKGRFTISRDNAKNTVYLQMNSLKPEDTAVYYCAADGDWYGYIWQSDDGYDSWGQGTQVTVSS | low polyreactivity |
| QVQLVESGGGLVQAGGSLSLSCAASGNNLYGNAMGWYRPAPGKERELVAGITSGGSTNYADSVKGRFTISRDNAKNTVYLQMNSLKREDTAVYYCNATSSGSIFGYDYWGQGTQVTVSS | low polyreactivity |
| QVQLVESGGGLVQAGGSLSLSCAASGRIFRYNAMGWYRQAPGKERELVATISRGGGSTYYADSVKGRFTISRDNAKNTVYLQMNSLKPEYTAVYYCAAVTYSRISGGYDYWGQGTQVTVSS | high polyreactivity |
| QVQLVESGGGLVQAGGSLSLSCAASGRTFKYYTMGWYRQAPGKERELVAAISASGGSTYYADSVKGRFTISRDNAKNTVYLQMNSLKPEDTAVYYCAKGANRAIHKQPTRSRLDSWGQGTQVTVSS | high polyreactivity |
| QVQLVESGGGLVQAGGSLSLSCAASGRTFNSYAMGWYRQAPGKERELVAAISWSGGSTYYADSVKGRFTISRDNAKNTVYLQMNSLKPEDTAVFYCATERYQSSRYRSYWYPFDYWGQGTQVTVSS | low polyreactivity |
| QVQLVESGGGLVQAGGSLSLSCAASGRTFSPYAMGWYRQAPGKERELVAAITNGGSTHYADSVKGRFTISRDNAKNTVYLQMNTLKPEYTAVYYCAKSRVLYGYAEYYEMDYWGQGTQVTVSS | low polyreactivity |
| QVQLVESGGGLVQAGGSLSLSCAASGRTFSYYTMGWYRQAPGKERELVARISNRGTNTYYADSVKGRFTISRDNAKNTVYLQMNSLTPEDTAVYYCAKYYYTSIVGYDSWGQGTQVTVSS | low polyreactivity |
| QVQLVESGGGLVQAGGSLSLSCAASGSIFGRNTMGWYRQAPGKERELVAAITLRGGSTYYADSVKGRFTISRDNAKKTVYLQMNSLKPEDTSDYYCATDGWKQSAYDYWGQGTQVTVSS | low polyreactivity |
| QVQLVESGGGLVQAGGSLSLSCAASGSIFGVNAMGWYRQAPGKERELVAAITLRSGSTYYADSVKGRFTISRDNAKNTVYIQMNSLKPEDTAVYYSATYSWGVDRPNYNYWGQGTQVTVSS | low polyreactivity |
| QVQLVESGGGLVQAGGSLSLSCAASGSIFRTYALGWYRQAPGKERELVASITKSGARTYYADSVKGRFTISRDNAKNTVYLQMNSLKPEDTAVYYCAAGYYSVTSRRYRMYYWGQGTQVTVSS | high polyreactivity |
| QVQLVESGGGLVQAGGSLSLSCAASGSIFRWYAMGWYRQAPGKERELVALISWRGGSTYADSVKGRFTISRDNAKNTVYLQMNSLKPEDTADYYCNARPGSSYWYDAQWGEYGYWGQGTQVTVSS | high polyreactivity |
| QVQLVESGGGLVQAGGSLSLSCAASGSIFSYYAMGWYRQAPGKARELVAAITANGGSTSYADSVKGRFTISRDTANNTVYLQMNRLKPEDTAVYYCAKESDYPDFVSTKGDYDYWGQGTQVTVSS | low polyreactivity |
| QVQLVESGGGLVQAGGSLSLSCAASGSILAVNAMGWYRQAPGKERELVAAISSRGGSTSYADSVKGRFTISRDNAKNTVYLQMNSLKPEDTAVYYCAVRAVRRLRTSVPVRFYYWGQGTQVTVSS | high polyreactivity |
| QVQLVESGGGLVQAGGSLSLSCAASGSILYINDMGWYRQAPGKERELVAAISWSGDSTIYADSVKGRFTISRDNAKNTVYLQMNSLKPEDTAVYYCNAVWYGGDMDYWGQGTQVTVSS | low polyreactivity |
| QVQLVESGGGLVQAGGSLSLSCAASGSIYWYAMGWYRQAPGKERELVSAISRRGGSTYYADSLKGRFTISRDNAKNTVYLQMNSLKPEDTAVYYCAVGIYGEYDYWGQGTQVTVSS | high polyreactivity |
| QVQLVESGGGLVQAGGSLSLSCAASGSNFYYNVMGWYRQAPGKERELVAAISQSGVRTYYADSVKGRFTISRDNAKNTVYLQMNSLKPEDTAVYYCAAKARRLYASSYDYWGQGTQVTVSS | high polyreactivity |
| QVQLVESGGGLVQAGGSLSLSCAASGSTFFIYTMGWYRQAPGNEREFVAAISWTGGRTYYADSEKGRFTISRDNAKNTVFLQMNSLTPEDTAVYYCAARYKYSSYDYWGQGTQVTVSS | high polyreactivity |
